Measurements reported in publication PMC8616692.

Biological target: 3CLpro (chymotrypsin-like cysteine protease, nsp5) of SARS-CoV-2, wild type (SARS-CoV-2)
Assay: SEC

3CLpro (chymotrypsin-like cysteine protease, nsp5) of SARS-CoV-2, wild type (enzyme)
stoichiometry N: 2
